# Patent US10900903B2, “Protein structure analysis based on red-edge excitation shift (REES) spectroscopy” (UNIVERSITY OF BATH, priority 2016, dated 2021)
# Where “and” joins values, the source holds several entries; their conditions need not be identical. Equal entries are not always repeated.
# What was measured:
# [1] = High-pressure REES measurements; format: physicochemical
# Source text: The CSM value is rather larger than reported for the denaturation study above (FIGS. 3A and 3B) and this is due to a different spectral window used to calculate the CSM for the pressure studies. This was necessary due to the optical setup of the pressure cell. […] Fitting the REES data to Eq 4 gives the pressure dependence of A, shown in FIG. 4D as the change in the fraction of A across the pressure range. […] The pressure dependence data can be adequately fit to a simple, phenomenological model that implies a single transition between two states with changing hydrostatic pressure as used previously:
# Where Rp=83.13 cm3 mol^−1 bar K^−1 when the pressure, p, is measured in bar, K0 is the equilibrium constant for the change in the relative population of the ith conformational state represented by the magnitude of A from Eq 4, extrapolated to 0 bar and ΔVA is the apparent difference in the volume associated with this equilibrium transition.
# The difference in sign is simply attributable to relative change in direction of the specific to signal. What is important is that the magnitude of ΔV is much larger for the REES effect compared to W6 emission. Indeed, this magnitude of pressure dependence is more consistent with global metrics of NEMO conformational change previously measured using the pressure dependence of 8-anilino naphthalene sulfonate (ANS) emission. The REES signal may therefore be reflective of the broader equilibrium of NEMO conformational states at sites distal to W6. […] The key finding from the pressure data in the present context is that the REES effect itself is pressure-dependent with the magnitude of A increasing with pressure.
# An ISS high-pressure cell (ISS, Champaign, UL, USA), fitted with a custom fiber optic mounting to the fluorimeter and connected to a circulating water bath for temperature regulation was used to record all high-pressure measurements.
# Where fi is the measured fluorescence intensity and λem is the emission wavelength. The importance of using a consistent wavelength range when reporting CSM data is stressed, as the magnitude will be dependent on the wavelength range chosen.
# [2] = previously found; cited from earlier work
# [3] = REES of NEMO W6 Trp emission: native, denatured, crowded; format: physicochemical; conditions: for R0: y-intercept of Eq 2 fit
# Procedure: Typically the magnitude of the steady-state REES phenomenon is reported as the simple difference in CSM or ΔλEm^max. From FIG. 1, it is observed that a significant red shift in the emission spectra, with an increase in CSM of 17.7 nm and an increase in ΔλEm^max of 15 nm from λex 292-310 nm. Essentially the data are treated by the linear function: CSM=Rλex+CSM0 Eq 1.
# Where R is the REES magnitude expressed as the change in CSM per nm of the excitation wavelength, λex.
# The REES data in FIG. 2 can be best represented by a Gaussian probability distribution of the form:
# Where A is the area, w is the full width at half-maximal (fwhm), m is the mid-point and R0 is the y-intercept and m=λREES^max, where λREES^max is the excitation wavelength that gives the largest change in the emission peak wavelength. The data in FIG. 2 are fit to Eq 2 and illustrate the low energy excitation at the red edge of the protein absorption spectrum. The fit of Eq 2 to the experimental data is excellent and captures the expected relationship described above.
# In this case, the solvent relaxation will be very rapid and no REES effect observed, effectively because there is one discrete solvation state (fully solvated). NEMO is incubated in 6M guanidine to denature the protein and the corresponding change in the center of spectral mass (CSM) versus λex is shown in FIG. 3. The use of CSM is favoured instead of the magnitude of ΔλEm^max as this metric gives a more robust REES signal and the magnitude of may be highly error prone. However the results using ΔλEm^max are essentially the same. A decrease and red-shift in Trp emission is typically grossly correlated with denaturation of proteins. […] Note that this is not the REES effect but reflective of the solvent exposure of NEMO W6 on denaturation. […] Fitting to Eq 2 also gives a large decrease in the REES effect, A=0.37±0.4. The relative change in the REES effect is similar using either approach and this indicates strongly that a fitting approach using Eq 2 is robust.
# Macromolecular crowding is a key feature of the intracellular milieu arising from the very high concentrations of other species in the cytosol. Crowding reduces the available solvent for other molecules in solution through the excluded volume effect, which effectively increase the concentration of, for example, protein and restricts the accessible conformational states through hard-core repulsions between the crowding agent and the protein. Macromolecular crowding can alter protein conformation, typically inducing folding and stabilization. Crowding therefore potentially provides a means to explore the contrasting physical effect of denaturation on the REES effect, where the protein is more folded/stabilized. A protein has been used as the crowding agent, Sbi (reported above), instead of a synthetic crowding agent since protein is much more consistent with the intracellular environment. […] Incubating NEMO with a high concentration of Sbi (20 mg/ml) gives a dramatic change to the both the absolute Trp emission and also the REES effect as shown in FIG. 3. […] Intriguingly, the REES effect is much larger in the crowded environment giving a relative increase in A of 2.24±0.51. […] This is consistent with the putative molecular model of NEMO activity that is based on allosterically regulated NEMO conformational change. Below, the potential mechanistic role of an increased number of available conformational states with respect to ligand interactions is described.
# Full length human NEMO was expressed and purified essentially as described previously. Purified protein was dialysed extensively into a buffer comprising 50 mM Tris-Cl pH 8.0, 50 mM NaCl and 5 mM DTT. All measurements were made in this buffer unless otherwise stated. IKK-β and IκBα peptides were commercially synthesised by Genscript, having a purity of >98% and are of the sequence […] and […], respectively. […]
# [4] = pressure dependence of emission, ref [23]; cited from earlier work
# [5] = QUBES values of native mAbs; format: physicochemical; conditions: native mAb
# Source text: First, the combined excitation and emission spectrum is monitored for each mAb giving a high information content fluorescence data set (FIG. 13A). […] A simpler exponential function is fitted, CSM=CSM0+Ae^RΔλ^Ex Eq 1.
# Where CSM0 is the CSM value independent of the excitation wavelength, λEx, determined by the amplitude, A, of an exponential with a curvature determined by R. Fitting with this function instead of a Gaussian or other probability distribution dramatically improves the speed of data processing due to the lower dimensionality of the model but still retains the key aspects of the previous model, namely quantification of the magnitude of the fluorescence edge-shift. The plot of the resulting parameters yields a single three-dimensional data point (FIG. 13B, inset; the QUBES value), which is a direct quantification of the extremely complex spectral fingerprint shown in FIG. 13A.
# All fluorescence measurements were performed using a Perkin Elmer LS50B Luminescence Spectrometer (Perkin Elmer, Waltham, Mass., USA) connected to a circulating water bath for temperature regulation (±1° C.). […] Tryptophan emission was monitored from 325 to 500 nm. […] The centre of spectral mass (CSM) was calculated using the following equation: […]
# Where fi is the measured fluorescence intensity and Δem is the emission wavelength. […]
Substance,"ΔλEm^max ([1]; 10° C., 1 bar, λex=295 nm) [nm]",increase in W6 CSM with increasing pressure ([1]; λex=292 nm) [nm],increase in CSM from 1 to 2000 bar ([1]; λex=310 nm) [nm],random coil content [2] [%],α-helical content [2] [%],"R (fit to Eq 1), change in CSM per nm of λex ([3]; absolute value)","A (REES magnitude, fit to Eq 2) ([3]; relative to NEMO alone, native, denatured (6M guanidine), crowded (Sbi 20 mg/ml))","R (fit to Eq 1), relative ([3]; relative to NEMO alone, native, denatured, crowded)","R0 ([3]; native, denatured, crowded) [nm]","R0 ([3]; native, denatured, crowded, listed as NEMO) [nm]","R0 ([3]; native, denatured, crowded, listed as native NEMO) [nm]",increase in CSM (red shift) ([3]; λex 292-310 nm) [nm],increase in ΔλEm^max ([3]; λex 292-310 nm) [nm],ΔV for W6 (Trp) emission [4],"QUBES value (A, R), predicted rigidity/flexibility [5]"
NEMOnative: Full length human NF-κB essential modulator; W6 is its single intrinsic Trp residue,348,3.0,8.9,~40,~50,0.96,1 ± 0.1,1 ± 0.13,363.2 ± 0.19,363.2±0.19,363.2±0.19,17.7,15,0.81 cm3 mol^−1 and ~1.6±0.4 cm3 mol^−1,–
Pertuzumab: humanised therapeutic mAb,–,–,–,–,–,–,–,–,–,–,–,–,–,–,small A and high R value
Nivolumab: human therapeutic mAb,–,–,–,–,–,–,–,–,–,–,–,–,–,–,high A and small R value
